*1 amine or outer side, *2 acyl side, *3 side chain or, on linkers, in order; H or OH if unused. Primed or numbered codes have the meaning given here. The star is where a group is joined. C20 diacid = O=C(O)CCCCCCCCCCCCCCCCCCC(=O)*; C18 diacid = O=C(O)CCCCCCCCCCCCCCCCC(=O)*; C16 diacid = O=C(O)CCCCCCCCCCCCCCC(=O)*; γGlu = O=C(O)[C@H](CCC(=O)[*:2])N[*:1]; Inp′ = not defined here; AEEA = NCCOCCOCC(=O)O
T1: human amylin receptor (AMY3) on CHO-K1/Gal5/AMY3 cells (human, UniProt P30988 25-474; O60896 24-148)
T1 sequence (looked up) 1: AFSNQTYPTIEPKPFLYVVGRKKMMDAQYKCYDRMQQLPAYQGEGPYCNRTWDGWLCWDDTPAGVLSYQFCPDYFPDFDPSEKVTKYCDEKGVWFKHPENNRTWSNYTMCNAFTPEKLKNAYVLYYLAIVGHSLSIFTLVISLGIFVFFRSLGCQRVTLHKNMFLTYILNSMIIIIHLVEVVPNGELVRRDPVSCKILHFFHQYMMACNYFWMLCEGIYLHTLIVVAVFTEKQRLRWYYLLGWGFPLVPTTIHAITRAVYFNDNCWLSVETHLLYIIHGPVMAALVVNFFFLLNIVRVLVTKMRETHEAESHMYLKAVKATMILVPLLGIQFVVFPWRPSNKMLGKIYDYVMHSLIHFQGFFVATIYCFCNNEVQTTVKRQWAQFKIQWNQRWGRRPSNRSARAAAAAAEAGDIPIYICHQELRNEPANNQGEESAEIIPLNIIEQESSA
T1 sequence (looked up) 2: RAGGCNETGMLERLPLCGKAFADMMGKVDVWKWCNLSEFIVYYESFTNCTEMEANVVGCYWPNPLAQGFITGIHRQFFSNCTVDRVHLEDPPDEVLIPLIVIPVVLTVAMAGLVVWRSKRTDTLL

B1: calcitonin derivative M19 (peptide)
peptide: {C20 diacid-γGlu}-ASQLSTAVLGRLSQELHRLQDYPRTDVGAGSP-NH2
SMILES: CC(C)C[C@H](NC(=O)[C@H](CCCNC(=N)N)NC(=O)CNC(=O)[C@H](CC(C)C)NC(=O)[C@@H](NC(=O)[C@H](C)NC(=O)[C@@H](NC(=O)[C@H](CO)NC(=O)[C@H](CC(C)C)NC(=O)[C@H](CCC(N)=O)NC(=O)[C@H](CO)NC(=O)[C@H](C)NC(=O)CC[C@H](NC(=O)CCCCCCCCCCCCCCCCCCC(=O)O)C(=O)O)[C@@H](C)O)C(C)C)C(=O)N[C@@H](CO)C(=O)N[C@@H](CCC(N)=O)C(=O)N[C@@H](CCC(=O)O)C(=O)N[C@@H](CC(C)C)C(=O)N[C@@H](Cc1c[nH]cn1)C(=O)N[C@@H](CCCNC(=N)N)C(=O)N[C@@H](CC(C)C)C(=O)N[C@@H](CCC(N)=O)C(=O)N[C@@H](CC(=O)O)C(=O)N[C@@H](Cc1ccc(O)cc1)C(=O)N1CCC[C@H]1C(=O)N[C@@H](CCCNC(=N)N)C(=O)N[C@H](C(=O)N[C@@H](CC(=O)O)C(=O)N[C@H](C(=O)NCC(=O)N[C@@H](C)C(=O)NCC(=O)N[C@@H](CO)C(=O)N1CCC[C@H]1C(N)=O)C(C)C)[C@@H](C)O
B2: calcitonin derivative M39 (peptide)
peptide: {C18 diacid-γGlu}-ASQLSTAVLGRLSDELHRLQDYPRTDVGSGSP-NH2
SMILES: CC(C)C[C@H](NC(=O)[C@H](CCCNC(=N)N)NC(=O)CNC(=O)[C@H](CC(C)C)NC(=O)[C@@H](NC(=O)[C@H](C)NC(=O)[C@@H](NC(=O)[C@H](CO)NC(=O)[C@H](CC(C)C)NC(=O)[C@H](CCC(N)=O)NC(=O)[C@H](CO)NC(=O)[C@H](C)NC(=O)CC[C@H](NC(=O)CCCCCCCCCCCCCCCCC(=O)O)C(=O)O)[C@@H](C)O)C(C)C)C(=O)N[C@@H](CO)C(=O)N[C@@H](CC(=O)O)C(=O)N[C@@H](CCC(=O)O)C(=O)N[C@@H](CC(C)C)C(=O)N[C@@H](Cc1c[nH]cn1)C(=O)N[C@@H](CCCNC(=N)N)C(=O)N[C@@H](CC(C)C)C(=O)N[C@@H](CCC(N)=O)C(=O)N[C@@H](CC(=O)O)C(=O)N[C@@H](Cc1ccc(O)cc1)C(=O)N1CCC[C@H]1C(=O)N[C@@H](CCCNC(=N)N)C(=O)N[C@H](C(=O)N[C@@H](CC(=O)O)C(=O)N[C@H](C(=O)NCC(=O)N[C@@H](CO)C(=O)NCC(=O)N[C@@H](CO)C(=O)N1CCC[C@H]1C(N)=O)C(C)C)[C@@H](C)O
B3: calcitonin derivative M40 (peptide)
peptide: {C16 diacid-γGlu}-ASQLSTAVLGRLSDELHRLQDYPRTDVGSGSP-NH2
SMILES: CC(C)C[C@H](NC(=O)[C@H](CCCNC(=N)N)NC(=O)CNC(=O)[C@H](CC(C)C)NC(=O)[C@@H](NC(=O)[C@H](C)NC(=O)[C@@H](NC(=O)[C@H](CO)NC(=O)[C@H](CC(C)C)NC(=O)[C@H](CCC(N)=O)NC(=O)[C@H](CO)NC(=O)[C@H](C)NC(=O)CC[C@H](NC(=O)CCCCCCCCCCCCCCC(=O)O)C(=O)O)[C@@H](C)O)C(C)C)C(=O)N[C@@H](CO)C(=O)N[C@@H](CC(=O)O)C(=O)N[C@@H](CCC(=O)O)C(=O)N[C@@H](CC(C)C)C(=O)N[C@@H](Cc1c[nH]cn1)C(=O)N[C@@H](CCCNC(=N)N)C(=O)N[C@@H](CC(C)C)C(=O)N[C@@H](CCC(N)=O)C(=O)N[C@@H](CC(=O)O)C(=O)N[C@@H](Cc1ccc(O)cc1)C(=O)N1CCC[C@H]1C(=O)N[C@@H](CCCNC(=N)N)C(=O)N[C@H](C(=O)N[C@@H](CC(=O)O)C(=O)N[C@H](C(=O)NCC(=O)N[C@@H](CO)C(=O)NCC(=O)N[C@@H](CO)C(=O)N1CCC[C@H]1C(N)=O)C(C)C)[C@@H](C)O
B4: calcitonin derivative M57 (peptide)
peptide: {C20 diacid-γGlu-AEEA-AEEA}-ASQLSTAVLGRLSEELHRLQDYPRTDVGSGSP-NH2
SMILES: CC(C)C[C@H](NC(=O)[C@H](CCCNC(=N)N)NC(=O)CNC(=O)[C@H](CC(C)C)NC(=O)[C@@H](NC(=O)[C@H](C)NC(=O)[C@@H](NC(=O)[C@H](CO)NC(=O)[C@H](CC(C)C)NC(=O)[C@H](CCC(N)=O)NC(=O)[C@H](CO)NC(=O)[C@H](C)NC(=O)COCCOCCNC(=O)COCCOCCNC(=O)CC[C@H](NC(=O)CCCCCCCCCCCCCCCCCCC(=O)O)C(=O)O)[C@@H](C)O)C(C)C)C(=O)N[C@@H](CO)C(=O)N[C@@H](CCC(=O)O)C(=O)N[C@@H](CCC(=O)O)C(=O)N[C@@H](CC(C)C)C(=O)N[C@@H](Cc1c[nH]cn1)C(=O)N[C@@H](CCCNC(=N)N)C(=O)N[C@@H](CC(C)C)C(=O)N[C@@H](CCC(N)=O)C(=O)N[C@@H](CC(=O)O)C(=O)N[C@@H](Cc1ccc(O)cc1)C(=O)N1CCC[C@H]1C(=O)N[C@@H](CCCNC(=N)N)C(=O)N[C@H](C(=O)N[C@@H](CC(=O)O)C(=O)N[C@H](C(=O)NCC(=O)N[C@@H](CO)C(=O)NCC(=O)N[C@@H](CO)C(=O)N1CCC[C@H]1C(N)=O)C(C)C)[C@@H](C)O
B5: calcitonin derivative M9 (peptide)
peptide: {C20 diacid-γGlu}-ASQLSTAVLGRLSEELHRLQDYPRTDVGSGSP-NH2
SMILES: CC(C)C[C@H](NC(=O)[C@H](CCCNC(=N)N)NC(=O)CNC(=O)[C@H](CC(C)C)NC(=O)[C@@H](NC(=O)[C@H](C)NC(=O)[C@@H](NC(=O)[C@H](CO)NC(=O)[C@H](CC(C)C)NC(=O)[C@H](CCC(N)=O)NC(=O)[C@H](CO)NC(=O)[C@H](C)NC(=O)CC[C@H](NC(=O)CCCCCCCCCCCCCCCCCCC(=O)O)C(=O)O)[C@@H](C)O)C(C)C)C(=O)N[C@@H](CO)C(=O)N[C@@H](CCC(=O)O)C(=O)N[C@@H](CCC(=O)O)C(=O)N[C@@H](CC(C)C)C(=O)N[C@@H](Cc1c[nH]cn1)C(=O)N[C@@H](CCCNC(=N)N)C(=O)N[C@@H](CC(C)C)C(=O)N[C@@H](CCC(N)=O)C(=O)N[C@@H](CC(=O)O)C(=O)N[C@@H](Cc1ccc(O)cc1)C(=O)N1CCC[C@H]1C(=O)N[C@@H](CCCNC(=N)N)C(=O)N[C@H](C(=O)N[C@@H](CC(=O)O)C(=O)N[C@H](C(=O)NCC(=O)N[C@@H](CO)C(=O)NCC(=O)N[C@@H](CO)C(=O)N1CCC[C@H]1C(N)=O)C(C)C)[C@@H](C)O
B6: calcitonin derivative M23 (peptide)
peptide: {C18 diacid}-DASQLSTAVLGRLSQELHRLQDYPRTDVGSGSP-NH2
SMILES: CC(C)C[C@H](NC(=O)[C@H](CCCNC(=N)N)NC(=O)CNC(=O)[C@H](CC(C)C)NC(=O)[C@@H](NC(=O)[C@H](C)NC(=O)[C@@H](NC(=O)[C@H](CO)NC(=O)[C@H](CC(C)C)NC(=O)[C@H](CCC(N)=O)NC(=O)[C@H](CO)NC(=O)[C@H](C)NC(=O)[C@H](CC(=O)O)NC(=O)CCCCCCCCCCCCCCCCC(=O)O)[C@@H](C)O)C(C)C)C(=O)N[C@@H](CO)C(=O)N[C@@H](CCC(N)=O)C(=O)N[C@@H](CCC(=O)O)C(=O)N[C@@H](CC(C)C)C(=O)N[C@@H](Cc1c[nH]cn1)C(=O)N[C@@H](CCCNC(=N)N)C(=O)N[C@@H](CC(C)C)C(=O)N[C@@H](CCC(N)=O)C(=O)N[C@@H](CC(=O)O)C(=O)N[C@@H](Cc1ccc(O)cc1)C(=O)N1CCC[C@H]1C(=O)N[C@@H](CCCNC(=N)N)C(=O)N[C@H](C(=O)N[C@@H](CC(=O)O)C(=O)N[C@H](C(=O)NCC(=O)N[C@@H](CO)C(=O)NCC(=O)N[C@@H](CO)C(=O)N1CCC[C@H]1C(N)=O)C(C)C)[C@@H](C)O
B7: calcitonin derivative M8 (peptide)
peptide: {C20 diacid-γGlu}-ASQLSTAVLGRLSDELHRLQDYPRTDVGSGSP-NH2
SMILES: CC(C)C[C@H](NC(=O)[C@H](CCCNC(=N)N)NC(=O)CNC(=O)[C@H](CC(C)C)NC(=O)[C@@H](NC(=O)[C@H](C)NC(=O)[C@@H](NC(=O)[C@H](CO)NC(=O)[C@H](CC(C)C)NC(=O)[C@H](CCC(N)=O)NC(=O)[C@H](CO)NC(=O)[C@H](C)NC(=O)CC[C@H](NC(=O)CCCCCCCCCCCCCCCCCCC(=O)O)C(=O)O)[C@@H](C)O)C(C)C)C(=O)N[C@@H](CO)C(=O)N[C@@H](CC(=O)O)C(=O)N[C@@H](CCC(=O)O)C(=O)N[C@@H](CC(C)C)C(=O)N[C@@H](Cc1c[nH]cn1)C(=O)N[C@@H](CCCNC(=N)N)C(=O)N[C@@H](CC(C)C)C(=O)N[C@@H](CCC(N)=O)C(=O)N[C@@H](CC(=O)O)C(=O)N[C@@H](Cc1ccc(O)cc1)C(=O)N1CCC[C@H]1C(=O)N[C@@H](CCCNC(=N)N)C(=O)N[C@H](C(=O)N[C@@H](CC(=O)O)C(=O)N[C@H](C(=O)NCC(=O)N[C@@H](CO)C(=O)NCC(=O)N[C@@H](CO)C(=O)N1CCC[C@H]1C(N)=O)C(C)C)[C@@H](C)O

Target: T1, human amylin receptor (AMY3) on …
Assay: cell-based or functional assay

Binder | EC50/nM, CRE-luciferase in amylin receptor/CRE-luc CHO cells [nM]
B1 | 0.016
B2 | 0.016
B3 | 0.002
B4 | 0.017
{C20 diacid-Inp′}-ASQLSTAVLGRLSEELHRLQDYPRTDVGSGSP-NH2 [calcitonin derivative M56] | 0.017
B5 | 0.017
B6 | 0.01
B7 | 0.017

Reference: EP4692114A1, “CALCITONIN ANALOGUE, AND DERIVATIVE THEREOF AND USE THEREOF” (Hangzhou Sciwind Biosciences Co., Ltd., priority 2023, dated 2024)
